Reference: patent publication US20160215065A1 (Genentech, published 2016)

Tests used:
[1] = biological target: T1, recombinant mouse NSP4 (form not stated) (mouse, UniProt Q14B24 40-284, limits assumed); assay: ratio of phage IC50 values against the parental clone 51.WT
T1 construct: also called mNSP4; soluble mNSP4
T1 sequence (looked up): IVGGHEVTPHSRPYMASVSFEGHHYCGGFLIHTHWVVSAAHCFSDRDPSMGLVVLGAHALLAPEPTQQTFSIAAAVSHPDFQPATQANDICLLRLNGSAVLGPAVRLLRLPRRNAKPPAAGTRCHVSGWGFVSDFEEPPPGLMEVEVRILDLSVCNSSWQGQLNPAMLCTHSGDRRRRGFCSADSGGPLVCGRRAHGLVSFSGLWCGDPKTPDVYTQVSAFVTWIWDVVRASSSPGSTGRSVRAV

[2] = biological target: T1, recombinant mouse NSP4 (form not stated); assay: phage competition binding assay (phage IC50); soluble mNSP4 competitor

B1: affinity matured anti-NSP4 antibody clone 51.59 (Fab, V domains shown)
VH: EVQLVESGGGLVQPGGSLRLSCAASGFTFSGSGIHWVRQAPGKGLEWVAWISPTGGNTYYADSVKGRFTISADTSKNTAYLQMNSLRAEDTAVYYCARVFFHNVAFDYWGQGTLVTVSS
VL: DIQMTQSPSSLSASVGDRVTITCRASQDVSTAVAWYQQKPGKAPKLLIYSASFLYSGVPSRFSGSGSGTDFTLTISSLQPEDFATYYCQQNFSSPPTFGQGTKVEIKR
Q: How did the “Affinity improvement to mNSP4” value [1] turn out when B1 was run?
A: 196 fold

Q: What about the IC50 [2] of the same binder?
A: 0.095 nM
